Data published in US20110217317A1 (published 2011).

B1: RhD295.119B11 (Fab, V domains shown)
VH: QVQLVESGGGLVQPGGSLRLSCVGSGFTFRSFDMNWVRQAPGKGLEWISYINSRGNTRYYVDSVKGRFTISRDNAKNSLYLQMNSLRAEDTAVYYCARDLYGDYDPKSYYYYGMDVWGQGTMVTVSS
VL: EIVLTQSPGTLSLSPGERATLSCRASQSFSSGYLAWYQQKPGQAPRLLIYGASNRATGIPDRFSGSGSGTDFTLTISRLEPEDFAVYYCQHYGSSPPITFGQGTRLEIKR
notes: Tested as Fab (periplasmic extract)
B2: RhD296.126A03 (Fab, V domains shown)
VH: EVQLVESGGGVVQPGRSLRLSCEASGFTFSNYGMHWFRQAPGKGLEWVAIIWYDGSNKHYADSVKGRFTISRDNSKNTLYLQMNSLRAEDTAVYFCAREIASRGYSRYLYYFDSWGQGTLVTVSS
VL: DIQMTQSPSSLSASVGDRVTITCRASQSISSYLNWYQQKPGKAPKLLIFAASSLQSGVPSRFSGSGSGTDFSLTISSLQPEDFATYYCQQSYSSLALTFGGGTKVEIKR
notes: as for B1
B3: RhD161.119E09 (Fab, V domains shown)
VH: EVQLVESGGGVVQSGRSLRLSCAASGFTFSNNGMHWVRQAPGKGLEWVAFIWYDGSNKYYADSVKGRFTISRDNSKNTLYLQMDGLRAEDSAVYYCAREEIAARLYSRYHYAMDVWGQGTMVTVSS
VL: DIQMTQSPSFLSASVGDRVTITCRASQGIRRYLAWFQQKPGKAPKLLIFSASTLQSGVPSRFSGSGSGTEFTLTISSLQPEDFATYYCQQLSSYPPYTFGQGTKLEIKR
notes: as for B1
B4: RhD160.119C07 (Fab, V domains shown)
VH: EVQLVESGGGVVQPGRSLRLSCAASGFTFSNYGMHWVRQAPGKGLEWVAVIWYDGSNRFYADSVKGRFTISRDNSKNTLYLQMNNLRAEDTALYSCAREITTTVVVRRHYLMDIWGQGTTVTVSS
VL: DIQLTQSPSSLSASVGDRVSITCRASQGISNSLAWYQQKPGKVPKLLIYAASTLQSGVPSRFSGGGSGTDFTLTISSLQPEDVATYYCQKYNSAPFAFGPGTKVDIKR
notes: as for B1
B5: RhD301.160A04 (Fab, V domains shown)
VH: QVQLVESGGGVVQPGRSLRLSCAASGFTFSSYGMHWVRQAPGKGLEWVAVIWFDGGNKYYADSAKGRFTISRDNSKNTLYLQMNSLRAEDTAVYYCARDASVLSGLVTRRLVYYGMDVWGQGTTVTVSS
VL: DVVMTQSPLSLPVTPGEPASISCRSSQSLLHRNGYNYLNWYLQKPGQSPQLLIYLGSNRASGVPDRFSGSGSGTDFTLKISGVEAEDVAFYYCMQGLRTPYTFGQGTKLEIKR
notes: as for B1
B6: RhD321.187G08 (Fab, V domains shown)
VH: EVQLVESGGGLVKPGGSLRLSCAASGFTFRSYSMNWVRQAPGKGLEWVSSIGSSSIYTYSADSVKGRFTISRDNAKNSLYLQMNSLRAEDTAVYYCARGEPLNYDYIWGRSRLTIHWGQGTLVTVSS
VL: LNFMLTQPHSVSESPGKTVTISCTRSSGSIASNYMQWYQQRPGSSPTTVIYEDNRRPSGVPDRFSGSIDSSSNSASLTISGLKTEDEADYYCQSYDSNNWVFGGGTKLTVLG
notes: as for B1
B7: RhD299.127A12 (Fab, V domains shown)
VH: QVQLVESGGGVVQPGRSLRLSCAASGFTFSNFGMHWVRQAPGKGLEWVAVIWYDGSNKDYADSVKGRFTISRDNSKRTLYLQMNSLRAEDTAVYYCARELARGRLRDLDYWGQGTLVTVSS
VL: QAVVTQEPSLTVSPGGTVTLTCASSTGAVTTGYYPNWFQQKPGQAPRALIYSTSKKHSWTPARFSGSLLGGKAALTLSGVQPEDEAEYYCLLFYGGAQLGVFGGGTKLTVLG
notes: as for B1
B8: RhD319.187A11 (Fab, V domains shown)
VH: QVQLVESGGGVVQPGRSLRLSCAASGFTFSTYGMHWVRQAPGKGLEWVAVIWYDGSNKNYADSVKGRFTISRDNSKNTLYLQMNSLRAEDTAVYYCARDLQGYRSSWYRMYYYYGMDVWGQGTTVTVSS
VL: QTVVTQEPSLTVSPGGTVTLTCASSTGAVTSGYYPNWFQQKPGQAPRALIYSTSNKHSWTPARFSGSLLGGKAALTLSGVQPEDEAEYYCLLYYGGAQRWVFGGGTILTVLG
notes: as for B1
B9: RhD305.181E06 (Fab, V domains shown)
VH: QVQLVESGGGVVQPGRSLRLSCAASGFTFSSYGMHWVRQAPGKGLEWVAGIWYDGSNKYYADSVKGRFTISRDNSRNTMYLQMNSLRAEDTAVYYCAREQGGYSSSWYRRYYYYNMDLWGQGTTVTVSS
VL: EIVLTQSPGSLSLSPGERATLSCRASQSVSSSYLAWYQQKPGQAPRLLIYGPSSRATGIPDRFSGSGSGTDFTLTISRLEPEDFAVYYCQHFGNSRGTFGQGTKVEIRR
notes: as for B1
B10: RhD306.223E11 (Fab, V domains shown)
VH: QVQLVESGGGVVQPGRSLRLSCAASGFTFSSYGMHWVRQAPGKGLEWVAVIWYDGSNKYYADSVKGRFTISRDNSKNTLYLQMNTLRDDDTAVYYCAREGTLYSSSWYRRYYYYGMDAWGQGTTVTVSS
VL: EIVLTQSPGTLSLSPGERVTLSCRPSRYIASDYLAWYQLRPGQAPKLLIYGASSRATGIPDRFSGVGSPTDFTLTISRLEPEDFAMYYCHYSGGSPPYPFGQGTRLDIKR
notes: as for B1
B11: RhD307.230E11 (Fab, V domains shown)
VH: QVQLVETGGGVVQPGRSLRLSCAASGFTFSSYGMHWVRQAPGKGLEWVAGIWYDGSNKYYGDSVKGRFTISRDNSRNTLYLHMNSLRADDTAVYYCAREHGGSRSGWYTLRLAYYFDYWGQGTLVTVSS
VL: DIQLTQSPSSLSASVGDRVTITCRASQYINVYLNWYQHKAGRAPKLLIYAASNLQSGVPPRFIGSGSGTDFTLTISSLQSEDFATYYCLQSFTVPRTFGPGTKVDVKR
notes: as for B1
B12: RhD302.160B10 (Fab, V domains shown)
VH: QVQLVESGGGVVQPGRSLRLSCAASGFTFSSYGMHWVRQAPGKGLEWVAFISYDGSNKYYADSVKGRFTISRDNSKNTLSLQMNSLRAEDTAVYYCAKEHGYYRSSWYRNYYYYGMDVWGQGTTVTVSS
VL: DIQLTQSPSSLSASVGDRVTITCRASQSISSYLNWYKQRPGKAPKLLIYAASTLQSGVPSRFSGSGSGTDFALTISSLQAEDFATYYCQQTYSTLWTFGQGTKVEITR
notes: as for B1
B13: RhD303.160B11 (Fab, V domains shown)
VH: QVQLVESGGGVVQPERSLRLSCAASGFTFSSYGMHWVRQAPGKGLEWVAVISYDGSNKYYADSVKGRFTISRDNSKNTLYLQMNSLRAEDTAVYYCAKDEVGYSSSWYRRYYYYAMDVWGQGTTVTVSS
VL: EIVLTQSPGTLSLSPGETATLSCRASQSVSDRDLAWYQQKSGQSPRLLMYGGSTRAPGIPVRFSGSGSGTEFTLTISSLQSEDFAIYYCQHYHDWPPTFGQGTRLEIKR
notes: as for B1
B14: RhD304.164B06 (Fab, V domains shown)
VH: QVQLVQSGGGVVQPGRSLRLSCAASGFTFSSYGMHWVRQAPGKGLEWVAVIWYDGSNKYYADSVKGRFTISRDNSKNTLYLQMNSLRAEDTAVYYCARETVVVAAKIRNHYYYAMDVWGQGTTVTVSS
VL: DIQMTQSPSSLSASLGGTVTLTCRSSQFISRYLNWYQQHPGKVPRLLISGASRLQRGVPSRFTGGGSGTDFTLTIKNVQPDDIATYFCQHSYRSGRAFGQGTTVEVKR
notes: as for B1
B15: RhD300.134H09 (Fab, V domains shown)
VH: QVQLVESGGGVVQPGRSLRLSCAASGFTFSSYGMHWVRQAPGKGLEWVAVIWYDGSNKYYADSVKGRFTISRDNSKNTLYLQMNSLRAEDTAVYYCAREFYTRSGLWSQGYSYYMDVWGKGTTVTVSS
VL: QTVVTQEPSFSVSPGGTVTLTCGLSSGSVSARYYPSWYQQTPGQPPRTLIHSTNTRSSGVPDRFSGSILGNKAALTITGAQADDESDYYCVLYMGSGPWVFGGGTKLTVLG
notes: as for B1
B16: RhD317.144A02 (Fab, V domains shown)
VH: QVQLQESGPGLVKPSGTLSLTCAVSGGSIRGSNWWSWVRQPPGKGLEWIGEIHHGGSTNYNPSLKSRVTISVDKSKNRFSLKLSSVTAADTAVYYCARGTSYYDSSGYSFRGLVAFDIWGQGTMVTVSS
VL: EIVLTQSPGTLSLSPGERATLSCRASQSVSSAFLAWYQQKPGQAPRLLIYGASSRATGIPDRFSGSGSGTDFTLTISRLEPEDFAVYYCQQYGSFSITFGQGTRLEIKR
notes: as for B1

Molecular target: T1, Rhesus D antigen (human, UniProt Q02161 2-417)
T1 construct: whole, on cells; Presented on RhD-positive erythrocytes in all assays; also called RhD; RhD antigen
T1 sequence (looked up): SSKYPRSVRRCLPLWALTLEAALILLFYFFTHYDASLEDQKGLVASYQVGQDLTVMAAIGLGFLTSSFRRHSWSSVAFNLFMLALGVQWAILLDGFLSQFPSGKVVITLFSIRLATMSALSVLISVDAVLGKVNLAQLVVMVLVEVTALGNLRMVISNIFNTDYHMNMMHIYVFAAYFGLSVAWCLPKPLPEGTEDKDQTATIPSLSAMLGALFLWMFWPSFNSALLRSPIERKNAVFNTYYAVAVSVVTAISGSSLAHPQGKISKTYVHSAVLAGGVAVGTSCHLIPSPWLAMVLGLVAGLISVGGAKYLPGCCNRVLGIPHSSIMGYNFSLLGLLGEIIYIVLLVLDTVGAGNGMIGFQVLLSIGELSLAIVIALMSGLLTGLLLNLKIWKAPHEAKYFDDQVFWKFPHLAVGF
Test: agglutination assay, Fab on RhD(+)/RhD(-) RBC mix
Description: After each round of panning single colonies were picked for analysis of their binding properties to red blood cells in agglutination assays. Briefly, single colonies were inoculated into 2×YT/100 μg/mL carbenicillin/1% glucose and shaken overnight at 37° C. The next day, DeepWell plates were inoculated using 900 μl 2×YT/100 μg/mL carbenicillin/0.1% glucose and 10 μl overnight culture. The plates were shaken for two hours at 37° C., before Fab induction was performed with addition of 300 μl 2×YT/100 μg/mL carbenicillin/0.25 mM IPTG per well. The plate was shaken overnight at 30° C. The following day, the bacteria were pelleted by centrifugation (3200×g, 4° C., 10 minutes), and re-suspended in 100 μl of 0.8 M NaCl, 0.2×PBS, 8 mM EDTA, and incubated for 15 minutes on ice in order to perform a periplasmic extraction of the Fab fragments. The plate was transferred to −20° C. and finally the suspension was thawed and centrifugation was performed for 10 minutes at 4° C. and 3200×g. The periplasmic extract was used in ELISA assays for analysis of Fab content and in agglutination assays to evaluate the binding potential of the individual Fab fragments. The agglutination assay was performed as follows: RhD(−) and RhD(+) RBC were mixed in a 1:1 ratio, and washed 3 times in PBS. After the final wash, the cell mix was re-suspended in 1% BSA in PBS at a density of 1% cells, 50 μl was added to each well of a 96-plate. Periplasmic extracts were added to the wells. As a positive control Rhesogamma P immunoglobulin (Aventis) was used according to the manufacturer's instructions. The plates were incubated for one hour at room temperature with gentle shaking. The cells were washed three times with PBS, before the secondary antibody was added (goat anti-human Fab/FITC conjugate, Sigma F5512) in a 1:100 dilution. The plates were left for agglutination for one hour at room temperature without shaking. Fab fragments positive in the agglutination assay was determined by visual inspection, and recorded by taking a picture. Quantization of the binding activity of the Fab fragments was performed by FACS analysis of the agglutination samples.

Binding result, binds:
B1
B2
B3
B4

Molecular target: T1, Rhesus D antigen
Test: Fab screening on red blood cells (agglutination/FACS)

Binding result, binds:
B5
B6
B7
B8
B9
B10
B11
B12
B13
B14
B15
B16
